Experimental data taken from paper PMC8032985.

Assays:
Test in all cases: MST; NT-647-NHS-labelled PP2A subunit at 20 nM as target, 12-point twofold dilution series of unlabelled ARPP as ligand; SEC buffer with 0.05% Tween-20; triplicate; single-site binding model
[1] = molecular target: PP2A regulatory subunit B56γ
[2] = molecular target: PP2A scaffolding subunit PR65α, full length (UniProt P30153)
[3] = molecular target: PP2A regulatory subunit B56α
Sequence of PP2A regulatory subunit B56α (Q15172 whole entry): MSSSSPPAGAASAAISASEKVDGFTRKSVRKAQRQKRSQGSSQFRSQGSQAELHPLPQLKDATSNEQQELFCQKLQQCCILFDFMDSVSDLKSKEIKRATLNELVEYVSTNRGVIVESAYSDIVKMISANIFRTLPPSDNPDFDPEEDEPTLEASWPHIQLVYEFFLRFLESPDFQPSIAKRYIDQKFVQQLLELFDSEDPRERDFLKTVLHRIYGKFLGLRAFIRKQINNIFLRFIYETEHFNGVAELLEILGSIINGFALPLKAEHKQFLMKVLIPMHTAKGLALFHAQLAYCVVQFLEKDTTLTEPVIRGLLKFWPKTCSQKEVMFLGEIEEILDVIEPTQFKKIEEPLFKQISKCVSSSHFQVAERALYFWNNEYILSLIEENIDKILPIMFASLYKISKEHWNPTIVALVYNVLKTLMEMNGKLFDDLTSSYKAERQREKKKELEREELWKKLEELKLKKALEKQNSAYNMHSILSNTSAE

Sequence of PP2A regulatory subunit B56γ (Q13362 whole entry): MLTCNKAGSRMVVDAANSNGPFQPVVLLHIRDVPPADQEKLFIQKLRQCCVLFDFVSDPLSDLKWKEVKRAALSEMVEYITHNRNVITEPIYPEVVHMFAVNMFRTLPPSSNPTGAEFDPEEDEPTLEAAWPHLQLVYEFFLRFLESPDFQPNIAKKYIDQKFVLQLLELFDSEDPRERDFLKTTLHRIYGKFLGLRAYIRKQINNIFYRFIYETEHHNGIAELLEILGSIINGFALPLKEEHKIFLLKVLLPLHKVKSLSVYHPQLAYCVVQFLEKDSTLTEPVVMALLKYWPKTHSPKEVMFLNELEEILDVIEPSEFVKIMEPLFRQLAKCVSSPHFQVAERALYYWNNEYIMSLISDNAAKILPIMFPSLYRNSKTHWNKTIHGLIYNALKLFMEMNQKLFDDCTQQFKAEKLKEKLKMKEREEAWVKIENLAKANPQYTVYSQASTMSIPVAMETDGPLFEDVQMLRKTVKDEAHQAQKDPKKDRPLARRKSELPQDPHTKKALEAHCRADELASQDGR
Sequence of PP2A scaffolding subunit PR65α, full length (P30153 whole entry): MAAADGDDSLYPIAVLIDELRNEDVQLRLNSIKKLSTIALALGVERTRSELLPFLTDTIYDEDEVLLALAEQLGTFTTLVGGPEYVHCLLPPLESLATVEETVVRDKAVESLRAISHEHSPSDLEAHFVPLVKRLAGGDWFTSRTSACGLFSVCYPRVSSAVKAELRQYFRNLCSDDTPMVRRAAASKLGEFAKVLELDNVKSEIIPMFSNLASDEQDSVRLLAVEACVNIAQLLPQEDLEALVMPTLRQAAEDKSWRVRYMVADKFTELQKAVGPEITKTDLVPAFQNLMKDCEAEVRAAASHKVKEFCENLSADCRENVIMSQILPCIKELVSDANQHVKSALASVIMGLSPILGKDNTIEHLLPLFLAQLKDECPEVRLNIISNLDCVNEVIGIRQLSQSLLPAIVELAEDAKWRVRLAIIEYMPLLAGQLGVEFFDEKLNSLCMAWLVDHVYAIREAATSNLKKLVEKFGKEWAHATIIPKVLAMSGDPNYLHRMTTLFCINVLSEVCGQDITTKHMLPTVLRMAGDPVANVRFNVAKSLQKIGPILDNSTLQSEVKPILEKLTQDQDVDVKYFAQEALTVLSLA

Kd [1] [µM] | Kd [2] [µM] | Kd [3] [µM] | Substance
– | – | 110 | ARPP-16 S46E phosphomimicking mutant (natural protein; other documents disagree on this pair)
– | – | 80 | ARPP-16 (splice variant of ARPP-19), wild type (natural protein; other documents disagree on this pair)

The next lines start with the substance.

Substance | Kd [1] [µM] | Kd [2] [µM] | Kd [3] [µM]
ARPP-16 (splice variant of ARPP-19), wild type (natural protein) | 710 | 5.4 | –
ARPP-16 S46E phosphomimicking mutant (natural protein) | 440 | 1 | –
ARPP-16 S88E phosphomimicking mutant (natural protein) | 200 | 3.3 | –
ARPP-16 S88E phosphomimicking mutant (natural protein; other documents disagree on this pair) | – | – | 130
